We go through 2 compounds from patent publication US20220273823A1, “THERANOSTIC CONJUGATES” (Ariel Scientific Innovations Ltd., priority 2019, published 2022).

Series [1] in a line: Spectral properties of RD, IRD-CLB and 5-CLB in PB and CM. In kind it is physicochemical. As to conditions: for ΦF / λmaxAb / λmaxFl: 25° C. The procedure:
The spectral properties of the dye RD and its conjugates IRD-CLB and 5-CLB were measured at the concentrations (c) of 0.6 μM in 10 mM phosphate buffer pH 7.5 (PB) and cell medium pH 7.5 (CM), both containing 20% of acetonitrile (ACN) to improve solubility of the compounds.
Table 2 presents the absorption (λmaxAb) and emission (λmaxFl) maxima, extinction coefficients (ε) and fluorescence quantum yields (ΦF) of the RD dye and IRD-CLB and 5-CLB conjugates measured at 25° C. in 10 mM phosphate buffer pH 7.5 (PB) and cell medium pH 7.5 (CM).
(§1) The biodegradable ester linker (BL) in IRD-CLB and 5-CLB can be hydrolyzed to release free CLB and, accordingly, IRD turns into RD, which is accompanied by a noticeable change in the spectral properties. The time-dependent emission spectra were recorded in PB and CM (see, FIGS. 9A-D) using the excitation wavelengths 720 nm and 532 nm. The first one enabled monitoring of the decrease in the concentration of IRD-CLB and 5-CLB, while the second one—the increase in the concentration of RD and OctA-RD. Only the NIR fluorescence of IRD-CLB and 5-CLB was detected, when excited at 720 nm; and only the red fluorescence of RD and OctA-RD was detected, when excited at 532 nm.
Absorption spectra were recorded on a Jasco V-730 UV-Vis spectrophotometer and the fluorescence spectra were measured on Edinburgh FS5 spectrofluorometer. The absorption and fluorescence spectra and the quantum yields (ΦF) were measured in a 1-cm quartz cell at ˜0.5 μM dye concentrations in PB 10 mmol buffer pH 7.4 at 25° C. and cell medium pH 7.4. Excitation wavelength was 720 nm and 532 nm. The recorded fluorescence spectra were corrected using the wavelength-dependent instrument sensitivity coefficients. Absorption and emission maxima were measured with accuracy of ±0.3 nm and ±0.5 nm, respectively, and rounded. For the determination of the quantum yields, the integrated relative intensities were measured versus ICG™ in methanol as the reference (ΦF=0.043) and Cy3™ in PBS (ΦF=0.043). The absorbance values measured for the samples and the reference at the excitation wavelength were 0.04-0.06 measured in a 1-cm cell. The absolute quantum yields were calculated according to Equation 1.

The nature of series [2]: Cleavage rates for IRD-CLB and 5-CLB in PB and cell medium (time-dependent emission spectra). It counts as in vitro ADME. Conditions: pH 7.4, incubated at 37° C., read-out: drug release half-life τ1/2 (converted). The procedure:
as §1
Upon the hydrolytic cleavage, the NIR emission band (FNIR) related to IRD decreases and the red emission band (FRed) of RD increases (FIGS. 9A-D). Based on the time-dependent emission spectra, the drug cleavage profiles for IRD-CLB and 5-CLB were obtained (FIG. 9A) and the drug release rates were quantified by the half-lives (τ1/2).
A stock solution of IRD-CLB and 5-CLB in acetonitrile was added to PB 10 mmol buffer pH 7.4 at 25° C. and cell medium pH 7.4, which both contained 20% of acetonitrile. The absorbance of the resulted solutions at the maximum was 0.10±0.01, when measured in a 1-cm standard quartz cell. The solutions were incubated at 37° C. during 24 hours. In certain periods of time fluorescence spectrum was measured.

A further series relates to Panc-1. The experiment in a line: XTT cytotoxicity assay, PANC-1. It counts as cell-based, human. As to conditions: PANC-1, 10 min at 37° C., up to 25 μM, washed, XTT at 24 hours. As to the method:
Application of the 5-CLB conjugate equipped with targeting peptide OctA was studied in the TDD monitoring using PANC-1 cancer cell line that overexpress SSTR-2 and SSTR-5 receptors. Efficient delivery of 5-CLB by the conjugated OctA to PANC-1 was verified by the XTT assay. Cytotoxicity of 5-CLB was compared to that of CLB or OctA added separately. The compounds were incubated with cells for 10 min at 37° C. at concentrations up to 25 μM, and subsequently were washed out, and growth inhibition compared to naïve/native cells was assessed in 24 hours.
The cytotoxicity of the peptide-drug conjugates was determined by measuring the mitochondrial enzyme activity, using a commercial XTT assay kit. Panc-1 cell line was cultured in RPMI medium supplemented with 10% heat-inactivated Fetal Bo-vine Serum (FBS), 2 mM glutamine, 1% penicillin and strep-tomycin and cultured at 37° C. in a humidified incubator with 6% CO2. Cells cultures were initiated in microplate wells at a concentration of 2-4×10^4 and the cells were allowed to adhere for 24 hours. […] Absorbance in the wells were measured with a TECAN Infinite M200 ELISA reader at both 480 and 680 nm—the latter being the background absorbance. […]

For a further series, the system named is SSTRs. In words: Competitive binding of 5-CLB and free octreotide to PANC-1 receptors (NIR fluorescence imaging). It counts as cell-based, human. Conditions: 5-CLB 10 μM, Oct x1, x3, x10 molar excess, NIR channel, 60 min after incubation. The procedure:
The specificity of 5-CLB towards PANC-1 cell line was supported also by a competitive binding of 5-CLB and commercially available octreotide to the PANC-1 receptors. In a series of experiments, PANC-1 cell line was incubated for 10 min in PBS buffer contained 5% DMSO with a constant concentration of 5-CLB (10 μM) and variable concentration of octreotide (×1, ×3 and ×10 molar excess) and washed out. Then the fluorescence images were taken in the NIR channel in 60 minutes after the incubation.
PANC-1 were incubated for 10 minutes at 37° C. in PB with 5-CLB (10 μM) and increasing concentrations of Oct (xl, x3 and x10 molar excess) and both compounds were washed out. Fluorescence images were taken at 60 min after the incubation and fluorescence intensities remaining in the cells were measured. […] At the next step, the ratiometric fluorescence monitoring of CLB release from the 5-CLB conjugate delivered into the PANC-1, has been conducted. The cells were incubated with 5-CLB for 10 min to allow accumulation of the compound, and fluorescence images were taken over time in two channels. The NIR channel enabled measurements of the signal from IRD dye conjugated with CLB (5-CLB) while the Red channel detected the signal from the RD fluorophore formed upon the CLB release. […]

Series [3] in a line: Ratiometric fluorescence monitoring of CLB release from 5-CLB in PANC-1. Conditions: human, PANC-1 cells; PANC-1, 10 μM, 10 min incubation, NIR and Red channels; read-out: CLB cleavage half-life τ1/2. It counts as cell-based. As to the method:
The Fluorescent images were acquired by Photometrics CoolSNAP HQ2 camera mounted on an Olympus iX81 fluorescent microscope. For the Red channel a cube comprising a ET560/40x bandpass excitation filter, ET630/75m bandpass emission filter and T5851pxr dichroic filter was used. For the NIR channel a cube comprising a ET740/40x bandpass excitation filter, ET7801p long pass emission filter and T7701pxr dichroic filter was used. To monitor drug release, Panc-1 cell line was grown in six-well culture plates and then washed with PBS (pH 7.4) two times and then incubated 10 minutes with 5-CLB 10 μM solution in PBS (for better solubility PBS with 3% DMSO was used). After incubation, the samples washed thoroughly with PBS (pH 7.4) two times to remove excess conjugate and the fluorescence changes immediately measured by using fluorescent microscope. […]
The band intensities in a representative experiment were quantified by measurement of related fluorescence intensity for each image (via the “Measure” function) with Image J software.
PANC-1 were incubated for 10 minutes at 37° C. in PB with 5-CLB (10 μM) and increasing concentrations of Oct (xl, x3 and x10 molar excess) and both compounds were washed out. Fluorescence images were taken at 60 min after the incubation and fluorescence intensities remaining in the cells were measured. […]

Series [4] in a line: Drug (Aza) release from Aza-Flu conjugates in PB, CM and 1.25% LH by time-dependent fluorescence spectra.
[5] abbreviates: cell medium (CM), in CM with 20% acetonitrile.

As for `C[C@@H](O)[C@H](NC(=O)[C@@H]1CSSC[C@H](NC(=O)[C@@H](Cc2ccccc2)NC(=O)CCCNC(=O)CCCCCN2/C(=C/C=C3\CCCC(/C=C/C4=[N+](C)c5ccccc5C4(C)C)=C3OC(=O)CCCc3ccc(N(CCCl)CCCl)cc3)C(C)(C)c3ccccc32)C(=O)N[C@@H](Cc2ccccc2)C(=O)N[C@H](Cc2c[nH]c3ccccc23)C(=O)N[C@@H](CCCCN)C(=O)N[C@@H]([C@@H](C)O)C(=O)N1)C(N)=O` [5-CLB], in series [1] (CM:ACN (4:1, v/v)), the ΦF was found to be 5.9%, the λmaxAb was 787 nm and the λmaxFl turned out to be 805 nm. Besides, the “emission when excited at 532 nm” value in series [1] (PB and CM) is reported as “no detectable emission”. In series [1] (PB:ACN (4:1, v/v)), this compound showed a ΦF of 1.5% and a λmaxFl of 796 nm. The same compound yielded a λmaxAb in series [1] (PB:ACN (4:1, v/v), c=0.6 μM) of 783 nm. Besides, in series [2] (PB (10 mmol buffer), in PB with 20% acetonitrile), the half-life was about 2.4 h. Further, in series [2] (setting [5]), the half-life was about 2 h and the half-life at 0.6 μM is about 2 h. The growth inhibition entry in the series with Panc-1 is given as “dramatically higher growth inhibition compared to CLB or OctA”. The “Fluorescence of 5-CLB accumulated in the cells in presence of free Oct” value in the series on SSTRs is “decreased proportionally to the Oct concentration”. The half-life at 10 μM in series [3] is about 3.33 h.

Take `COc1cc(C2c3[nH]c4ccccc4c3CC3COC(=O)N32)cc(OC)c1O/C=C/C(=O)Oc1ccc2c(c1)Oc1cc(OCC(=O)O)ccc1C21OC(=O)c2ccccc21` (stereo not drawn) [Aza-Flu-COOH, (E)-2-((3′-((3-(2,6-dimethoxy-4-(3-oxo-1,3,5,6,11,11a-hexahydrooxazolo[3′,4′:1,6]pyrido[3,4-b]indol-5-yl)phenoxy)acryloyl)oxy)-3-oxo-3H-spiro [isobenzofuran-1,9′-xanthen]-6′-yl)oxy) acetic acid]: the half-life in series [4] was about 1.8 h.
